Measured values: PMC8141644, “Design of a Trispecific Checkpoint Inhibitor and Natural Killer Cell Engager Based on a 2 + 1 Common Light Chain Antibody Architecture” (Frontiers in Immunology, 2021)
Blank lines part the entries; values can stand above or below the binder they belong to.

Assays:
PD-L1-ECD = molecular target: T1, PD-L1-ECD (Homo sapiens (; durvalumab …, UniProt Q9NZQ7); experiment: BLI; affinity determination as previously described (54); purified antibodies (loaded onto AHC biosensors, as told for the anti-CD16a variants), antigen in solution; Octet RED96, 30 °C, 1000 rpm; conditions: both partners purified
T1 construct: also called His-tagged PD-L1; source: bought: R&D systems (His-tagged PD-L1)

EGFR-ECD [1] = molecular target: T2, EGFR-ECD (UniProt P00533); experiment: as above; conditions: both partners purified
T2 construct: epidermal growth factor receptor (EGFR), extracellular domain (EGFR-ECD); With anti-human-Fc (AHC) sensors it was probably the His-tagged one; also called epidermal growth factor receptor extracellular domain

EGFR-ECD [2] = molecular target: T2, EGFR-ECD; experiment: BLI; sterile filtered Expi293F cell culture supernatants of the light chain variants paired with the parental FEB4 heavy chain; conditions: one partner purified

T1 sequence (Q9NZQ7 19-238): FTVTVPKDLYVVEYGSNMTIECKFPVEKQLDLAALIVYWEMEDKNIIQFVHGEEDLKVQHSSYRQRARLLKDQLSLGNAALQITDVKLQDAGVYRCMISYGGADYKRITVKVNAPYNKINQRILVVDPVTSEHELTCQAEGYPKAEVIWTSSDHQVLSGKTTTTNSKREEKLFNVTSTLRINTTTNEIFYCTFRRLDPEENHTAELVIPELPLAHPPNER

Kd (PD-L1-ECD): 3 nM
B1: ICI2 (antibody, V domains shown)
VH: AVTLDESGGGLQTPGGALSLVCKASGFDFSSYDMAWVRQAPGKGLEWVAGIKSNGPWTNYGAAVKGRATISRDNGQSTVRLQLNNLRAEDTAIYYCAKPGAGYVGWDAAGTIDSWGHGTEVIVSS
VL: ALTQPSSVSANPGETVKITCSGGGYDGSYYYGWYQQKSPGSAPVTVIYDNTNRPSNIPSRFSGSLSGSTNTLTITGVQAEDEAVYFCGGYDRSGGIFGGGTTLTVL
notes: VH of ICI2 (chicken-derived); IgG1 constant region (CH1, hinge, Fc) with the LALA mutation; as the light chain of m10 (dFEB1-VL common light chain); IgG1 LALA chimeric antibody; source: Expi293F, purified (Protein A chromatography); copies: 2 + 2

Kd (EGFR-ECD [1]): 6.4 nM
fold improvement in KD against the parental FEB4 (EGFR-ECD [1]): 5 fold
B2: dFEB4-1 (antibody, V domains shown)
VH: AVTLDESGGGLQTPGGALSLVCKASGFTFSSHGMLWVRQAPGKGLEFVAGISTDGSSTSYGAPVKGRATISRDNGQSTVRLQLNNLRAEDTGTYYCAKDAYRCRNCAEDIDAWGHGTEVIVSS
VL: B1 VL
notes: as the heavy chain of m8 (parental FEB4 heavy chain); dFEB1-VL, chicken VL from the light chain shuffling; human lambda CL; IgG; also called parental FEB4 heavy chain with dFEB1-VL; source: Expi293F, co-transfected; sterile filtered culture supernatant, and purified (Protein A chromatography); copies: 2 + 2

binding result (EGFR-ECD [2]): binds
B3: FEB4 (antibody, V domains shown)
VH: B2 VH
VL: ALTQPSSVSANPGETVKITCSGGYSDDGSYYYYGWFQQKSPGSAPVTVIYDNTNRPSNIPSRFSGSTSGSTSTLTITGVRAEDEAVYYCGSIDTGYAGIFGAGTTLTVL
notes: IgG1 constant region (CH1, hinge, Fc); standard IgG1 format; also called parental FEB4 mAb; parental antibody; copies: 2 + 2
